Measured values: patent US20210246218A1 (LYVGEN BIOPHARMA SUZHOU, published 2021)

Tests used:
human B7-H3 on CHO cells = molecular target: T1, human B7-H3 on CHO cells (human, UniProt Q5ZPR3 29-534); assay: flow cytometry on CHO cells over-expressing the target
T1 construct: whole, on cells
T1 sequence (looked up): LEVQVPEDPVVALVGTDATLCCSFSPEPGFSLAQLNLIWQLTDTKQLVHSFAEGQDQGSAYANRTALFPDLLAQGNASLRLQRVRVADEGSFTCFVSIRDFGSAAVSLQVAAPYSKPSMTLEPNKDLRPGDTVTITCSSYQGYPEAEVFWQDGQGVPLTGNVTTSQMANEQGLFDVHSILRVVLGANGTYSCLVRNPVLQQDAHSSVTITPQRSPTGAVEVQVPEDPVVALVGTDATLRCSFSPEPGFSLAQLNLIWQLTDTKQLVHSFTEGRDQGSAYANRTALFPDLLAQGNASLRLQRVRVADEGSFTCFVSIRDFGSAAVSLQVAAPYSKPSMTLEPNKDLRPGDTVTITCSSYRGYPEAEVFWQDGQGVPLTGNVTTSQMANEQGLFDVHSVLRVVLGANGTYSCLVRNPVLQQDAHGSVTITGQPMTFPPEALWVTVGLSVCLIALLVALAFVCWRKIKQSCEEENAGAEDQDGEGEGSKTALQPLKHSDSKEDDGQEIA
Method: (§1) The cells were resuspended in ice cold assay buffer at 2*10\hat{ }6/mL and transferred to 96-well V-bottom plate with 100 μL/well. […] The plate was incubated in the dark for 2 hours at 4° C. The cells were washed 3 times by centrifugation at 1000 g for 3 min and resuspended in 100 μL ice cold assay buffer containing goat F(ab′)₂ anti-human IgG-Fc (PE) or PE goat anti-mouse IgG antibody. The plate was incubated in the dark for another 1 hour at 4° C. The cells were washed 2 times by centrifugation at 1000 g for 3 min and resuspended in ice cold assay buffer containing 2% PFA and analyzed on the flow cytometer immediately.

human CD160 on CHO cells = molecular target: T2, human CD160 on CHO cells (human, UniProt O95971 25-159); assay: as above
T2 construct: whole, on cells
T2 sequence (looked up): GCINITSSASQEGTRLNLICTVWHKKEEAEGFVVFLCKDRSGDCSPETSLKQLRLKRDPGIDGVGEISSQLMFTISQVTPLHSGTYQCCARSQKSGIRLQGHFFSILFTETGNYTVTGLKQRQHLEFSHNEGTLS
Method: as §1

human CD47 on CHO cells = molecular target: T3, human CD47 on CHO cells (human, UniProt Q08722 19-323); assay: as above
T3 construct: whole, on cells
Method: as §1

human PD-1 on CHO cells = molecular target: T4, human PD-1 on CHO cells (human, UniProt Q15116 25-288); assay: as above
T4 construct: whole, on cells
T4 sequence (Q15116 25-288): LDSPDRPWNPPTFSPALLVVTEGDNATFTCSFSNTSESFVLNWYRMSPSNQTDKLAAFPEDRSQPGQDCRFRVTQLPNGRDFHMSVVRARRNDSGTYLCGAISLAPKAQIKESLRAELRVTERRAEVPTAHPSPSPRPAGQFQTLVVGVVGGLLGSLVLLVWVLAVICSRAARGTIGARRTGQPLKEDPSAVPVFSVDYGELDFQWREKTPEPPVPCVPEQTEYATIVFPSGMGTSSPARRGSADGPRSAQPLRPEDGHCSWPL
Method: as §1

human GITR on CHO cells = molecular target: T5, human GITR on CHO cells (human, UniProt Q9Y5U5 26-241); assay: as above
T5 construct: whole, on cells
T5 sequence (looked up): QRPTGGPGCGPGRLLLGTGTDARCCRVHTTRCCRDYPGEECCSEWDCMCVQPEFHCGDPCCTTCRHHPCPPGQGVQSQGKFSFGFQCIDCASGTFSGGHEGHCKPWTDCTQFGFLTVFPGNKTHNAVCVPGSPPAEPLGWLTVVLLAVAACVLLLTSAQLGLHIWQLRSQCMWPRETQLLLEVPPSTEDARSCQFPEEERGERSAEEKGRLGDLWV
Method: as §1

[1] = molecular target: T6, human CD200R1 on CHO cells (human, UniProt Q8TD46 25-348); assay: as above
T6 construct: whole, on cells
T6 sequence (looked up): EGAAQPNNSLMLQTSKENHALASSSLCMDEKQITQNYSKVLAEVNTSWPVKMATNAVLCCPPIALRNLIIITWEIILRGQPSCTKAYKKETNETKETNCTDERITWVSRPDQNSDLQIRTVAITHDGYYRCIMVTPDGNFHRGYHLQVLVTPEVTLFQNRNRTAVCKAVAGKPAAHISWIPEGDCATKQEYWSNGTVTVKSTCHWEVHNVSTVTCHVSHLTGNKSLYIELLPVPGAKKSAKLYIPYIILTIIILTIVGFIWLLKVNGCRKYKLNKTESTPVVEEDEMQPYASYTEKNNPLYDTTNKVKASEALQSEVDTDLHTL
Method: as §1

[2] = molecular target: T7, human FcγRIIB-Ile232 on CHO-K1 cells (human, UniProt P31994 43-310); assay: flow cytometry on CHO-huFcγRIIB cells, anti-human Fc F(ab')2
T7 construct: whole, on cells; also called CHO-K1-huFcγRIIB-Ile232; CHO-K1-huFcγRIIB
T7 sequence (looked up): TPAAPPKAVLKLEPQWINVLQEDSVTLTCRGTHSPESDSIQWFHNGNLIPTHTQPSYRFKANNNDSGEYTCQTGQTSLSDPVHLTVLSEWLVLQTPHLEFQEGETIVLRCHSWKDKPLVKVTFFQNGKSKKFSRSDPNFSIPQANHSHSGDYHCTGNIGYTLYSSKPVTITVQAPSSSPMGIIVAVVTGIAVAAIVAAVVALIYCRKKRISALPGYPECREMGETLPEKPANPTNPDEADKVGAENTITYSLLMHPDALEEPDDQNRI
Method: The plate was mixed and incubated in the dark for 2 hours at 4° C.

human CD137 on cells = molecular target: T8, human CD137 on cells (human, UniProt Q07011 24-255); assay: flow cytometry on CHO-human CD137 cells, PE anti-human IgG-Fc
T8 construct: whole, on cells; also called CHO-human CD137; CHO cells over-expressing human CD137
T8 sequence (Q07011 24-255): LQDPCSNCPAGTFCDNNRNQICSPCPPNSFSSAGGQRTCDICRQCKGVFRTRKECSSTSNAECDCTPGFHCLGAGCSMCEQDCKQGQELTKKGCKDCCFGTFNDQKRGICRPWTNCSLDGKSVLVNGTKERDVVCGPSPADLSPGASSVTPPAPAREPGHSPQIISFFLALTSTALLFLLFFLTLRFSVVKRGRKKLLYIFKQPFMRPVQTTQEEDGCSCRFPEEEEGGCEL
Method: CHO cells over-expressing human or cynomolgus monkey CD137 and CHO parental cells were harvested by centrifugation at 1000 g for 3 minutes. The cells were resuspended in ice cold assay buffer at 2*10\hat{ }6/mL and transferred to 96-well V-bottom plate with 100 μL/well. […] The plate was mixed and incubated in the dark for 2 hours at 4° C. The cells were washed 3 times by centrifugation at 1000 g for 3 min and resuspended in ice cold assay buffer containing goat F(ab′)₂ anti-human IgG-Fc (PE), 100 μL/well. The plate was incubated in the dark for another 1 hour at 4° C. The cells were washed 2 times by centrifugation at 1000 g for 3 min and resuspended in ice cold assay buffer containing 2% PFA. The cells were then subjected to the flow cytometer immediately.
Mean fluorescence intensity (MFI) was calculated from the total cell population in the FCM experiments. Graphpad 7.0, “[Agonist] vs. response—Variable slope (four parameters)” was used to plot the binding MFI in dose response and to calculate FCM binding EC₅₀ values.

binding result (human B7-H3 on CHO cells): no binding | binding result (human CD160 on CHO cells): no binding | binding result (human CD47 on CHO cells): no binding | binding result (human PD-1 on CHO cells): no binding | binding result (human GITR on CHO cells): no binding | binding result [2]: binds | EC50 (read off the curve) (human CD137 on cells): ~0.05 µg/mL
B1: Clone 3712-IgG1v (IgG1v/kappa) (antibody)
heavy: QVQLVQSGAEVKKPGASVKVSCKASGYTFAGFEMHWVRQAPGQGLEWMGAIDPKTGGTDYNQKFKDRVTMTRDTSISTAYMELSRLRSDDTAVYYCARDLGYFDVWGQGTLVTVSSASTKGPSVFPLAPSSKSTSGGTAALGCLVKDYFPEPVTVSWNSGALTSGVHTFPAVLQSSGLYSLSSVVTVPSSSLGTQTYICNVNHKPSNTKVDKKVEPKSCDKTHTCPPCPAPELLGPSVFLFPPKPKDTLMISRTPEVTCVVVDVEHEDPEVKFNWYVDGVEVHNAKTKPREEQYNSTYRVVSVLTVLHQDWLNGKEYKCKVSNKALPAPIEKTISKAKGQPREPQVYTLPPSREEMTKNQVSLTCLVKGFYPSDIAVEWESNGQPENNYKTTPPVLDSDGSFFLYSKLTVDKSRWQQGNVFSCSVMHEALHNHYTQKSLSLSPGK
light: DIQMTQSPSSLSASVGDRVTITCRASQDIRSNLNWYQQKPGGAVKLLIYYTSRLHSGVPSRFSGSGSGTDYTLTISSLQPEDFATYFCQQSEKLPRTFGGGTKVEIRRTVAAPSVFIFPPSDEQLKSGTASVVCLLNNFYPREAKVQWKVDNALQSGNSQESVTEQDSKDSTYSLSSTLTLSKADYEKHKVYACEVTHQGLSSPVTKSFNRGEC
notes: copies: 2 + 2
binding result [1]: no binding
